Laboratory results: patent US20120225828A1 (PALATIN TECHNOLOGIES, published 2012)
Bridge positions count the residues as written; N and C are the ends. Square brackets hold non-standard residues; d marks the D form. dPhe(3-Cl) = N[C@H](Cc1cccc(Cl)c1)C(=O)O; dPhe(4-Cl) = N[C@H](Cc1ccc(Cl)cc1)C(=O)O; dPhe(4-Me) = Cc1ccc(C[C@@H](N)C(=O)O)cc1; dPhe(2-Cl) = N[C@H](Cc1ccccc1Cl)C(=O)O; dPhe(4-F) = N[C@H](Cc1ccc(F)cc1)C(=O)O; 1Nal = N[C@@H](Cc1cccc2ccccc12)C(=O)O; 2Nal = N[C@@H](Cc1ccc2ccccc2c1)C(=O)O; d1Nal = N[C@H](Cc1cccc2ccccc12)C(=O)O; d2Nal = N[C@H](Cc1ccc2ccccc2c1)C(=O)O; dPhe(2-F) = N[C@H](Cc1ccccc1F)C(=O)O; Cit = NC(=O)NCCC[C@H](N)C(=O)O; Nle = CCCC[C@H](N)C(=O)O; Orn = NCCC[C@H](N)C(=O)O; Dab = NCC[C@H](N)C(=O)O; Dap = NC[C@H](N)C(=O)O

B1: Ac-Nle-cyclo(Glu-His-D-Phe-Arg-Dab)-Nal 2-NH2 (peptide)
peptide: Ac-[Nle]EH[dF]R[Dab][2Nal]-NH2
modifications: lactam 2-6
B2: Ac-Nle-cyclo(Glu-Orn-D-Phe(3,4-F)-Arg-Dab)-NH2 (peptide)
peptide: Ac-[Nle]E[Orn][dPhe(3,4-F)]R[Dab]-NH2
modifications: lactam 2-6
B3: Ac-Nle-cyclo(Glu-His-D-Phe-Ala-Dab)-NH2 (peptide)
peptide: Ac-[Nle]EH[dF]A[Dab]-NH2
modifications: lactam 2-6
SMILES: CCCC[C@H](NC(C)=O)C(=O)N[C@H]1CCC(=O)NCC[C@@H](C(N)=O)NC(=O)[C@H](C)NC(=O)[C@@H](Cc2ccccc2)NC(=O)[C@H](Cc2c[nH]cn2)NC1=O
B4: Ac-Nle-cyclo(Glu-His-D-Phe-Arg-Dab)-NH2 (peptide)
peptide: Ac-[Nle]EH[dF]R[Dab]-NH2
modifications: lactam 2-6
SMILES: CCCC[C@H](NC(C)=O)C(=O)N[C@H]1CCC(=O)NCC[C@@H](C(N)=O)NC(=O)[C@H](CCCNC(=N)N)NC(=O)[C@@H](Cc2ccccc2)NC(=O)[C@H](Cc2c[nH]cn2)NC1=O
B5: Ac-Nle-cyclo(Glu-His-D-Phe-Arg-Dap)-Trp-OH (peptide)
peptide: Ac-[Nle]EH[dF]R[Dap]W-OH
modifications: lactam 2-6
B6: Ac-Nle-cyclo(Glu-Orn-D-Phe(4-Me)-Arg-Dab)-NH2 (peptide)
peptide: Ac-[Nle]E[Orn][dPhe(4-Me)]R[Dab]-NH2
modifications: lactam 2-6
SMILES: CCCC[C@H](NC(C)=O)C(=O)N[C@H]1CCC(=O)NCC[C@@H](C(N)=O)NC(=O)[C@H](CCCNC(=N)N)NC(=O)[C@@H](Cc2ccc(C)cc2)NC(=O)[C@H](CCCN)NC1=O
B7: Ac-Nle-cyclo(Glu-His-D-Phe-Arg-Dab)-Lys-NH2 (SEQ ID NO: 55) (peptide)
peptide: Ac-[Nle]EH[dF]R[Dab]K-NH2
modifications: lactam 2-6
SMILES: CCCC[C@H](NC(C)=O)C(=O)N[C@H]1CCC(=O)NCC[C@@H](C(=O)N[C@@H](CCCCN)C(N)=O)NC(=O)[C@H](CCCNC(=N)N)NC(=O)[C@@H](Cc2ccccc2)NC(=O)[C@H](Cc2c[nH]cn2)NC1=O
B8: Ac-Nle-cyclo(Glu-Orn-D-Phe(2-Cl)-Arg-Dab)-NH2 (peptide)
peptide: Ac-[Nle]E[Orn][dPhe(2-Cl)]R[Dab]-NH2
modifications: lactam 2-6
SMILES: CCCC[C@H](NC(C)=O)C(=O)N[C@H]1CCC(=O)NCC[C@@H](C(N)=O)NC(=O)[C@H](CCCNC(=N)N)NC(=O)[C@@H](Cc2ccccc2Cl)NC(=O)[C@H](CCCN)NC1=O
B9: Ac-Nle-cyclo(Glu-His-D-Phe-Arg-Dab)-Ala-NH2 (peptide)
peptide: Ac-[Nle]EH[dF]R[Dab]A-NH2
modifications: lactam 2-6
SMILES: CCCC[C@H](NC(C)=O)C(=O)N[C@H]1CCC(=O)NCC[C@@H](C(=O)N[C@@H](C)C(N)=O)NC(=O)[C@H](CCCNC(=N)N)NC(=O)[C@@H](Cc2ccccc2)NC(=O)[C@H](Cc2c[nH]cn2)NC1=O
B10: Ac-Nle-cyclo(Dap-His-D-Phe-Arg-Dap)-Trp-NH2 with bridge C(═O)-(CH2)2-C(═O) (peptide)
peptide: Ac-[Nle][Dap]H[dF]R[Dap]W-NH2
modifications: linker 2-6 via C(:O)‑(CH2)2‑C(:O)
B11: Ac-Nle-cyclo(Glu-Orn-D-Phe(3-Cl)-Arg-Dab)-NH2 (peptide)
peptide: Ac-[Nle]E[Orn][dPhe(3-Cl)]R[Dab]-NH2
modifications: lactam 2-6
SMILES: CCCC[C@H](NC(C)=O)C(=O)N[C@H]1CCC(=O)NCC[C@@H](C(N)=O)NC(=O)[C@H](CCCNC(=N)N)NC(=O)[C@@H](Cc2cccc(Cl)c2)NC(=O)[C@H](CCCN)NC1=O
B12: Ac-Nle-cyclo(Glu-Orn-D-Phe(4-F)-Arg-Dab)-NH2 (peptide)
peptide: Ac-[Nle]E[Orn][dPhe(4-F)]R[Dab]-NH2
modifications: lactam 2-6
SMILES: CCCC[C@H](NC(C)=O)C(=O)N[C@H]1CCC(=O)NCC[C@@H](C(N)=O)NC(=O)[C@H](CCCNC(=N)N)NC(=O)[C@@H](Cc2ccc(F)cc2)NC(=O)[C@H](CCCN)NC1=O
B13: Ac-Nle-cyclo(Glu-Pro-D-Phe-Arg-Dab)-NH2 (peptide)
peptide: Ac-[Nle]EP[dF]R[Dab]-NH2
modifications: lactam 2-6
B14: Ac-D-Phe-cyclo(Glu-His-D-Phe-Arg-Dab)-Trp-NH2 (peptide)
peptide: Ac-[dF]EH[dF]R[Dab]W-NH2
modifications: lactam 2-6
B15: Ac-Nle-cyclo(Glu-Cit-D-Phe-Arg-Dab)-Trp-NH2 (SEQ ID NO: 54) (peptide)
peptide: Ac-[Nle]E[Cit][dF]R[Dab]W-NH2
modifications: lactam 2-6
B16: Ac-Nle-cyclo(Glu-Orn-D-Phe(4-OMe)-Arg-Dab)-NH2 (peptide)
peptide: Ac-[Nle]E[Orn][dPhe(4-OMe)]R[Dab]-NH2
modifications: lactam 2-6
B17: Ac-Nle-cyclo(Dab-His-D-Phe-Arg-Dab)-Trp-NH2 with bridge C(═O)-(CH2)2-C(═O) (peptide)
peptide: Ac-[Nle][Dab]H[dF]R[Dab]W-NH2
modifications: linker 2-6 via C(:O)‑(CH2)2‑C(:O)
B18: Ac-Nle-cyclo(Dab-His-D-Phe-Arg-Dap)-Trp-NH2 with bridge C(═O)-(CH2)2-C(═O) (peptide)
peptide: Ac-[Nle][Dab]H[dF]R[Dap]W-NH2
modifications: linker 2-6 via C(:O)‑(CH2)2‑C(:O)
B19: Ac-Nle-cyclo(Glu-His-D-Phe-Arg-Dab)-Nal 1-NH2 (peptide)
peptide: Ac-[Nle]EH[dF]R[Dab][1Nal]-NH2
modifications: lactam 2-6
B20: Ac-Nle-cyclo(Glu-His-D-Phe-Arg-Dap)-Trp-NH2 (peptide)
peptide: Ac-[Nle]EH[dF]R[Dap]W-NH2
modifications: lactam 2-6
B21: Ac-Nle-cyclo(Glu-Orn-D-Phe(2-F)-Arg-Dab)-NH2 (peptide)
peptide: Ac-[Nle]E[Orn][dPhe(2-F)]R[Dab]-NH2
modifications: lactam 2-6
SMILES: CCCC[C@H](NC(C)=O)C(=O)N[C@H]1CCC(=O)NCC[C@@H](C(N)=O)NC(=O)[C@H](CCCNC(=N)N)NC(=O)[C@@H](Cc2ccccc2F)NC(=O)[C@H](CCCN)NC1=O
B22: Ac-Nle-cyclo(Glu-His-D-Phe-Arg-Dab)-D-Trp-NH2 (peptide)
peptide: Ac-[Nle]EH[dF]R[Dab][dW]-NH2
modifications: lactam 2-6
B23: Ac-Nle-cyclo(Glu-Orn-D-Phe(4-Cl)-Arg-Dab)-NH2 (peptide)
peptide: Ac-[Nle]E[Orn][dPhe(4-Cl)]R[Dab]-NH2
modifications: lactam 2-6
SMILES: CCCC[C@H](NC(C)=O)C(=O)N[C@H]1CCC(=O)NCC[C@@H](C(N)=O)NC(=O)[C@H](CCCNC(=N)N)NC(=O)[C@@H](Cc2ccc(Cl)cc2)NC(=O)[C@H](CCCN)NC1=O
B24: Ac-Nle-cyclo(Glu-His-D-Phe-Arg-Orn)-Trp-NH2 (peptide)
peptide: Ac-[Nle]EH[dF]R[Orn]W-NH2
modifications: lactam 2-6
B25: Ac-Nle-cyclo(Glu-His-D-Phe-Arg-Dab)-Nal 2-NH2 (SEQ ID NO: 14) (peptide)
peptide: Ac-[Nle]EH[dF]R[Dab][d2Nal]-NH2
modifications: lactam 2-6
B26: Ac-Nle-cyclo(Glu-Dab-D-Phe-Arg-Dab)-Trp-NH2 (SEQ ID NO: 57) (peptide)
peptide: Ac-[Nle]E[Dab][dF]R[Dab]W-NH2
modifications: lactam 2-6
B27: Ac-Nle-cyclo(Glu-Pro-D-Phe-Arg-Dab)-Trp-NH2 (peptide)
peptide: Ac-[Nle]EP[dF]R[Dab]W-NH2
modifications: lactam 2-6
SMILES: CCCC[C@H](NC(C)=O)C(=O)N[C@H]1CCC(=O)NCC[C@@H](C(=O)N[C@@H](Cc2c[nH]c3ccccc23)C(N)=O)NC(=O)[C@H](CCCNC(=N)N)NC(=O)[C@@H](Cc2ccccc2)NC(=O)[C@@H]2CCCN2C1=O
B28: Ac-Nle-cyclo(Glu-Orn-D-Phe-Arg-Dab)-NH2 (peptide)
peptide: Ac-[Nle]E[Orn][dF]R[Dab]-NH2
modifications: lactam 2-6
SMILES: CCCC[C@H](NC(C)=O)C(=O)N[C@H]1CCC(=O)NCC[C@@H](C(N)=O)NC(=O)[C@H](CCCNC(=N)N)NC(=O)[C@@H](Cc2ccccc2)NC(=O)[C@H](CCCN)NC1=O
B29: Ac-Nle-cyclo(Glu-Orn-D-Phe-Arg-Dab)-Trp-NH2 (SEQ ID NO: 58) (peptide)
peptide: Ac-[Nle]E[Orn][dF]R[Dab]W-NH2
modifications: lactam 2-6
B30: Ac-Nle-cyclo(Glu-His-D-Phe-Arg-Dab)-Trp-NH2 (peptide)
peptide: Ac-[Nle]EH[dF]R[Dab]W-NH2
modifications: lactam 2-6
B31: Ac-Nle-cyclo(Glu-His-D-Phe-Arg-Dab)-D-Nal 1-NH2 (peptide)
peptide: Ac-[Nle]EH[dF]R[Dab][d1Nal]-NH2
modifications: lactam 2-6
B32: Ac-Nle-cyclo(Glu-Lys-D-Phe-Arg-Dab)-Trp-NH2 (SEQ ID NO: 56) (peptide)
peptide: Ac-[Nle]EK[dF]R[Dab]W-NH2
modifications: lactam 2-6
B33: Ac-Nle-cyclo(Glu-His-D-Phe-Arg-Dab)-Trp-OH (peptide)
peptide: Ac-[Nle]EH[dF]R[Dab]W-OH
modifications: lactam 2-6
SMILES: CCCC[C@H](NC(C)=O)C(=O)N[C@H]1CCC(=O)NCC[C@@H](C(=O)N[C@@H](Cc2c[nH]c3ccccc23)C(=O)O)NC(=O)[C@H](CCCNC(=N)N)NC(=O)[C@@H](Cc2ccccc2)NC(=O)[C@H](Cc2c[nH]cn2)NC1=O

Target: human melanocortin-1 receptor hMCR-1 expressed by the human melanoma cell line HBL (human, UniProt Q01726 1-317)
Sequence (Q01726 whole entry): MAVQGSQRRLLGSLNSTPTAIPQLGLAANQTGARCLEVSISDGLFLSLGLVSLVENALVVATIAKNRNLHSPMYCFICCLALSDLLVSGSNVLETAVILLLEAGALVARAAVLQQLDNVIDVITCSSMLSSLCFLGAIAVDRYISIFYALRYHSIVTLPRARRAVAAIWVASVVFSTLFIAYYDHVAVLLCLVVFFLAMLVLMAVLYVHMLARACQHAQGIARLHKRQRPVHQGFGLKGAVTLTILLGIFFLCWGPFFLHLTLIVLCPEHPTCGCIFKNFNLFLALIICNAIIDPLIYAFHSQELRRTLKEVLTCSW
Assay: cell-based or functional assay

Row | Binder | MC-1 Emax (average; cAMP HBL) | MC-1 EC50 (average; cAMP HBL)
1 | B1 | 83% | 
2 | B2 | 97% | 1 nM
3 | B3 | 73% | 44 nM
4 | B4 | 85% | 0.32 nM
5 | B5 | 81% | 0.107 nM
6 | B6 | 96% | 0.076 nM
7 | B7 | 91% | 0.175 nM
8 | B8 | 88% | 1 nM
9 | B9 | 97% | 0.008 nM
10 | B10 | 70% | 0.007 nM
11 | B11 | 86% | 2 nM
12 | B12 | 102% | 1 nM
13 | B13 | 102% | 
14 | B14 | 75% | 
15 | B15 | 97% | 
16 | B16 | 99% | 0.12 nM
17 | B17 | 92% | 

Row | Binder | MC-1 Emax (average; cAMP HBL) | MC-1 EC50 (average; cAMP HBL)
18 | B18 | 78% | 0.006 nM
19 | B19 | 72% | 
20 | B20 | 91% | 
21 | B21 | 95% | 0.8 nM
22 | B22 | 93% | 
23 | B23 | 100% | 0.1 nM
24 | B24 | 91% | 
25 | B25 | 69% | 
26 | B26 | 108% | 
27 | B27 | 97% | 0.18 nM
28 | B28 | 102% | 0.5 nM
29 | B29 | 109% | 
30 | B30 | 95% | 
31 | B31 | 73% | 
32 | B32 | 108% | 
33 | B33 | 79% | 
